Source: paper doi:10.1101/271593 (bioRxiv, 2018)

Columns and labels:
crystal structure = target: the molecule itself; test: crystal structure
native MS = target: the molecule itself; test: native MS

| Protein | stoichiometry N (crystal structure) | stoichiometry N (native MS) |
| --- | --- | --- |
| HsMTHFR_(38-644) (domain or fragment) not shown | 2 |  |
| HsMTHFR_(1-656) treated with calf intestine alkaline phosphatase (dephosphorylated) (enzyme) not shown |  | 2 |
